Measurements taken from patent US20240066131A1 (Protagonist Therapeutics, Inc., priority 2020, published 2024).
Values belong to the binder of their own block, whether it stands above or below them. Starred links: 1 amine or outer side, 2 acyl side, 3 side chain; linkers in the order of their positions; H or OH if unused. Positions of bridges follow the written chain, without caps; N, C: chain ends. Non-standard residues stand in square brackets, D forms with d. Groups on a side chain read outwards from the residue. *: point of attachment. Dip = N[C@H](C(=O)O)C(c1ccccc1)c1ccccc1; γGlu = O=C(O)[C@H](CCC(=O)[*:2])N[*:1]; Palmitoyl = CCCCCCCCCCCCCCCC(=O)*; β3hF = N[C@H](CC(=O)O)Cc1ccccc1; Isovaleryl = CC(C)CC(=O)*; Dab = NCC[C@H](N)C(=O)O; Ahx = NCCCCCC(=O)O

Experiments:
[1] = biological target: T1, ferroportin endogenously expressed on T47D cells (HTB 133, ATCC) (human, UniProt Q9NP59 1-571); assay: cell-based or functional assay
T1 sequence (looked up): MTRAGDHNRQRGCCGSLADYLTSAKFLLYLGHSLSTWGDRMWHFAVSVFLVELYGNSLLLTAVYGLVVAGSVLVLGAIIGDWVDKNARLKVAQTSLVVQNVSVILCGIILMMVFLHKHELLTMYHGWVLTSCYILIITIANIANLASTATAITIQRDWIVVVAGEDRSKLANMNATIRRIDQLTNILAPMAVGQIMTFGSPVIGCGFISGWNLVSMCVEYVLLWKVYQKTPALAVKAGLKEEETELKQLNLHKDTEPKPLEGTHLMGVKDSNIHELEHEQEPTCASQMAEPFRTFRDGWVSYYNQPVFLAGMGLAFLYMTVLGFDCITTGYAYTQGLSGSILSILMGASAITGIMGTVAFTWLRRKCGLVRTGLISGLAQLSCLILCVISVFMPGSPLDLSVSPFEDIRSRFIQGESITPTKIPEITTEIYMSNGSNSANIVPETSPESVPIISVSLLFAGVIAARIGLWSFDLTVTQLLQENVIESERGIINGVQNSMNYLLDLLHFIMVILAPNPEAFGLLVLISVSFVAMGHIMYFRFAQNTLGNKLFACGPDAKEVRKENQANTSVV

[2] = biological target: T2, human ferroportin (SLC40A1) fused in frame with GFP, stably expressed in HEK293 cells (human, UniProt Q9NP59 1-571); assay: cell-based or functional assay
T2 sequence (looked up): T1 sequence (looked up)

T47D MSA IC50 [1]: 24.4 nM
Binder: XETHXPXX (N-term Isovaleric Acid; Dpa4; Lys(Ahx_Palm)6; C-term N_Ethyl_Nap) [Isovaleric Acid-E-T-H-[Dpa]-P-[Lys(Ahx_Palm)]-N_Ethyl_Nap]

T47D MSA IC50 [1]: 15.3 nM
Binder: XETHXPXX (N-term Isovaleric Acid; Dpa4; Lys(Ahx_Palm)6; C-term N_Propyl_Phe) [Isovaleric Acid-E-T-H-[Dpa]-P-[Lys(Ahx_Palm)]-N_Propyl_Phe]

T47D MSA IC50 [1]: 3.96 nM
B1: Isovaleric Acid-K-T-H-[Dpa]-P-A-I-D-[bhPhe]-[Lys(Ahx_Palm)]-R-NH2 (peptide)
peptide: Isovaleryl-KTH[Dip]PAID[β3hF]K([Ahx-Palmitoyl])R-NH2
modifications: lactam 1-8
SMILES: CCCCCCCCCCCCCCCC(=O)NCCCCCC(=O)NCCCC[C@H](NC(=O)C[C@H](Cc1ccccc1)NC(=O)[C@@H]1CC(=O)NCCCC[C@H](NC(=O)CC(C)C)C(=O)N[C@@H]([C@@H](C)O)C(=O)N[C@@H](Cc2c[nH]cn2)C(=O)N[C@@H](C(c2ccccc2)c2ccccc2)C(=O)N2CCC[C@H]2C(=O)N[C@@H](C)C(=O)N[C@@H]([C@@H](C)CC)C(=O)N1)C(=O)N[C@@H](CCCNC(=N)N)C(N)=O

FPN EC50 [2]: 314 nM
T47D MSA IC50 [1]: 13.3 nM
B2: Isovaleric Acid-E-T-H-[Dpa]-P-A-I-[Lys(IsoGlu_Palm)]-[bhPhe]-[(D)Lys]-NH2 (peptide)
peptide: Isovaleryl-ETH[Dip]PAIK([γGlu-Palmitoyl])[β3hF][dK]-NH2
SMILES: CCCCCCCCCCCCCCCC(=O)N[C@@H](CCC(=O)NCCCC[C@H](NC(=O)[C@@H](NC(=O)[C@H](C)NC(=O)[C@@H]1CCCN1C(=O)[C@@H](NC(=O)[C@H](Cc1c[nH]cn1)NC(=O)[C@@H](NC(=O)[C@H](CCC(=O)O)NC(=O)CC(C)C)[C@@H](C)O)C(c1ccccc1)c1ccccc1)[C@@H](C)CC)C(=O)N[C@H](CC(=O)N[C@H](CCCCN)C(N)=O)Cc1ccccc1)C(=O)O

T47D MSA IC50 [1]: 31.2 nM
B3: Isovaleric Acid-K-T-H-[Dpa]-P-A-I-E-[Lys(Ahx_Palm)]-NH2 (peptide)
peptide: Isovaleryl-KTH[Dip]PAIEK([Ahx-Palmitoyl])-NH2
modifications: lactam 1-8
SMILES: CCCCCCCCCCCCCCCC(=O)NCCCCCC(=O)NCCCC[C@H](NC(=O)[C@@H]1CCC(=O)NCCCC[C@H](NC(=O)CC(C)C)C(=O)N[C@@H]([C@@H](C)O)C(=O)N[C@@H](Cc2c[nH]cn2)C(=O)N[C@@H](C(c2ccccc2)c2ccccc2)C(=O)N2CCC[C@H]2C(=O)N[C@@H](C)C(=O)N[C@@H]([C@@H](C)CC)C(=O)N1)C(N)=O

FPN EC50 [2]: 175 nM
T47D MSA IC50 [1]: 355 nM
Binder: Isovaleryl-ETH[Dip]PAIK(Ac)[β3hF]-NH2 [Isovaleric Acid-E-T-H-[Dpa]-P-A-I-[Lys(Ac)]-[bhPhe]-NH2]

T47D MSA IC50 [1]: 52.3 nM
B4: Isovaleric Acid-E-T-H-[Dpa]-P-K-[bhPhe]-[Lys(Ahx_Palm)]-NH2 (peptide)
peptide: XETHXPKXX
modifications: N-term Isovaleric Acid; Dpa4; bhPhe7; Lys(Ahx_Palm)8; C-term NH2; cyclized E-K (lactam)

T47D MSA IC50 [1]: 5.77 nM
B5: Isovaleric Acid-Orn-T-H-[Dpa]-P-A-I-E-[bhPhe]-[Lys(Ahx_Palm)]-R-NH2 (peptide)
peptide: XXTHXPAIEXXR
modifications: N-term Isovaleric Acid; Orn1; Dpa4; bhPhe9; Lys(Ahx_Palm)10; C-term NH2; cyclized Orn-E (lactam)

T47D MSA IC50 [1]: 10.8 nM
B6: Isovaleric Acid-E-T-H-[Dpa]-P-A-I-[123 Triazole]-[bhPhe]-[Lys(Ahx_Palm)]-[(D)Lys]-NH2 (peptide)
peptide: XETHXPAIXXXX
modifications: N-term Isovaleric Acid; Dpa4; 123 Triazole8; bhPhe9; Lys(Ahx_Palm)10; (D)Lys11; C-term NH2; cyclized A-123Triazole (side-chain C of alanine and C5 of triazole joined by a C-C bond)

T47D MSA IC50 [1]: 25.5 nM
Binder: Isovaleryl-ETH[Dip]PIK[β3hF]K([Ahx-Palmitoyl])-NH2 (lactam 1-7 (inferred)) [Isovaleric Acid-E-T-H-[Dpa]-P-I-K-[bhPhe]-[Lys(Ahx_Palm)]-NH2]

T47D MSA IC50 [1]: 131 nM
B7: Isovaleric Acid-Dab-T-H-[Dpa]-P-A-I-D-[bhPhe]-[Lys(Ahx_Palm)]-R-NH2 (peptide)
peptide: Isovaleryl-[Dab]TH[Dip]PAID[β3hF]K([Ahx-Palmitoyl])R-NH2
modifications: lactam 1-8
SMILES: CCCCCCCCCCCCCCCC(=O)NCCCCCC(=O)NCCCC[C@H](NC(=O)C[C@H](Cc1ccccc1)NC(=O)[C@@H]1CC(=O)NCC[C@H](NC(=O)CC(C)C)C(=O)N[C@@H]([C@@H](C)O)C(=O)N[C@@H](Cc2c[nH]cn2)C(=O)N[C@@H](C(c2ccccc2)c2ccccc2)C(=O)N2CCC[C@H]2C(=O)N[C@@H](C)C(=O)N[C@@H]([C@@H](C)CC)C(=O)N1)C(=O)N[C@@H](CCCNC(=N)N)C(N)=O

T47D MSA IC50 [1]: 46.1 nM
Binder: XETHXPXX (N-term Isovaleric Acid; Dpa4; Lys(bAla_Palm)6; C-term N_Butyl_Phe) [Isovaleric Acid-E-T-H-[Dpa]-P-[Lys(bAla_Palm-N_Butyl_Phe]

T47D MSA IC50 [1]: 2.14 nM
Binder: Isovaleryl-ETH[Dip]PAIK[β3hF]K([Ahx-Palmitoyl])-NH2 (lactam 1-8) [Isovaleric Acid-E-T-H-[Dpa]-P-A-I-K-[bhPhe]-[Lys(Ahx_Palm)]-NH2]

T47D MSA IC50 [1]: 179 nM
Binder: XETHXPXX (N-term Isovaleric Acid; Dpa4; Lys(IsoGlu_Palm)6; C-term N_Butyl_Phe) [Isovaleric Acid-E-T-H-[Dpa]-P-[Lys(IsoGlu_Palm-N_Butyl_Phe]
